Data from publication PMC10308935 (Journal of Virology, 2023).

Legend:
[1] = biological target: SARS-CoV-2 Omicron BA.2 spike receptor-binding domain (SARS-CoV-2 Omicron BA.2, strain); test: BLI
[2] = biological target: SARS-CoV-2 Omicron BA.5 spike receptor-binding domain (SARS-CoV-2 Omicron BA.5, N440K | L452R | F486V); test: BLI

B1: MO1 monoclonal antibody (recombinant human IgG) (antibody, V domains shown)
VH: EVQLVESGGGMVQPGRSLRLSCAASGFTFDDYAMHWVRQIPGKGLEWVSGISWNSGDIGYADSVKGRFTISRDNAKNSLHLQMNSLRAEDTALYYCAKDKTYDSPGYFLNSFDYWGQGTLVTVSS
VL: DIQMTQSPSSLSASVGDRVTITCRASQGISSYLVWYQQKPGKAPKFLIYAASTLQSGVPSRFSGSGSGTDFTLTISSLQPEDFATYYCQQLYSYPITFGQGTRLEIK
- Kd [1]: 3.3 nM
- Kd [2]: 11 nM
